T1: TrxA-His6-TbRAP1(639-761) (Trypanosoma brucei, UniProt C1JEX5 639-761)
T1 sequence: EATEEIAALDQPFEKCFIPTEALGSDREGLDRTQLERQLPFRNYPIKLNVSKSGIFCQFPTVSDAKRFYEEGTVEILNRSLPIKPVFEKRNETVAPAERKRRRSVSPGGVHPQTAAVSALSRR

T2: TrxA-His6-TbRAP1(639-761) 5A (Trypanosoma brucei, UniProt C1JEX5 639-761, R737A;K738A;R739A;R740A;R741A)
T2 sequence: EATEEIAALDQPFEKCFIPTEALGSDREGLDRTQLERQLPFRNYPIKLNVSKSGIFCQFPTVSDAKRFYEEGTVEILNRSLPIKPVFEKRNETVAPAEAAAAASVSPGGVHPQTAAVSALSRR

T3: TrxA-His6-TbRAP1(639-733) (Trypanosoma brucei, UniProt C1JEX5 639-733)
T3 sequence: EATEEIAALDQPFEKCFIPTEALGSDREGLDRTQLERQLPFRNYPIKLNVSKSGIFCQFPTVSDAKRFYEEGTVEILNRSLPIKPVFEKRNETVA

T4: TrxA-His6-TbRAP1(639-761) 2SA (Trypanosoma brucei, UniProt C1JEX5 639-761, S742A;S744A)
T4 sequence: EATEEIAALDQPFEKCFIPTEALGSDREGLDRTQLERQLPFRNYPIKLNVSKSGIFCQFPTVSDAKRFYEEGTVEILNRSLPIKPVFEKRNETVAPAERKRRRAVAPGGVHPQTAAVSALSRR

T5: TbRAP1(639-761) 5A, tag removed (Trypanosoma brucei, UniProt C1JEX5 639-761, R737A;K738A;R739A;R740A;R741A)
T5 sequence: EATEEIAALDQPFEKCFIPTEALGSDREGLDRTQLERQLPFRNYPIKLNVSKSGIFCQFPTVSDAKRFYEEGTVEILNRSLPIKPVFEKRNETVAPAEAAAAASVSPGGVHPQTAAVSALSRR

T6: TbRAP1(639-761), tag removed (Trypanosoma brucei, UniProt C1JEX5 639-761)
T6 sequence: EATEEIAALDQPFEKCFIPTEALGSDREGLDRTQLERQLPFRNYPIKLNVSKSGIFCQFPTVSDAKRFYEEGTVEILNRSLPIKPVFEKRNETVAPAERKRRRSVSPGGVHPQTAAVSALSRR


Experiments:
[1] = biological target: T1, TrxA-His6-TbRAP1(639-761); assay: EMSA
[2] = biological target: T1, TrxA-His6-TbRAP1(639-761); assay: competition
[3] = biological target: T2, TrxA-His6-TbRAP1(639-761) 5A; assay: EMSA
[4] = biological target: T3, TrxA-His6-TbRAP1(639-733); assay: EMSA
[5] = biological target: T4, TrxA-His6-TbRAP1(639-761) 2SA; assay: EMSA
[6] = biological target: T5, TbRAP1(639-761) 5A, tag removed; assay: NMR HSQC
[7] = biological target: T6, TbRAP1(639-761), tag removed; assay: NMR HSQC
[8] = biological target: T1, TrxA-His6-TbRAP1(639-761); assay: EMSA; remark: listed apart in the source

| Binder | binding result [3] | binding result [4] | Kd [1] [µM] | other results |
| --- | --- | --- | --- | --- |
| dsDNA 80 bp random (dsDNA) DNA 1: CGTGCAGAGCAGGAAAAAGCCACACGGGAACTCCTCCTGCAACAAACTTCAGCACCACATGCATCATCAGTTACATCCGG DNA 2: CCGGATGTAACTGATGATGCATGTGGTGCTGAAGTTTGTTGCAGGAGGAGTTCCCGTGTGGCTTTTTCCTGCTCTGCACG |  |  |  | binding result [1]: binds |
| dsDNA 200 bp random (dsDNA) DNA 1: CGCGCGTAATACGACTCACTATAGGGCGAATTGGGTACCGGGCCCCCCCTCGAGGTCGACGGTATCGATAAGCTTGATATCGAATTCCAAAGAAGCCATGCGCCGTGCAGAGCAGGAAAAAGCCACACGGGAACTCCTCCTGCAACAAACTTCAGCACCACATGCATCATCAGTTACATCCGGATCCACTAGTTCTAG DNA 2: CTAGAACTAGTGGATCCGGATGTAACTGATGATGCATGTGGTGCTGAAGTTTGTTGCAGGAGGAGTTCCCGTGTGGCTTTTTCCTGCTCTGCACGGCGCATGGCTTCTTTGGAATTCGATATCAAGCTTATCGATACCGTCGACCTCGAGGGGGGGCCCGGTACCCAATTCGCCCTATAGTGAGTCGTATTACGCGCG |  |  |  | binding result [2]: binds |
| dsDNA 100 bp random (dsDNA) DNA 1: GAATTCCAAAGAAGCCATGCGCCGTGCAGAGCAGGAAAAAGCCACACGGGAACTCCTCCTGCAACAAACTTCAGCACCACATGCATCATCAGTTACATCCGGGATCC DNA 2: GGATCCCGGATGTAACTGATGATGCATGTGGTGCTGAAGTTTGTTGCAGGAGGAGTTCCCGTGTGGCTTTTTCCTGCTCTGCACGGCGCATGGCTTCTTTGGAATTC | no binding | no binding | 21.5 |  |
| ssDNA 100 nt random (ssDNA) DNA: AATTCCAAAGAAGCCATGCGCCGTGCAGAGCAGGAAAAAGCCACACGGGAACTCCTCCTGCAACAAACTTCAGCACCACATGCATCATCAGTTACATCCG | no binding | no binding | 0.31 | binding result [5]: binds |
| random dsDNA 18 bp (NMR) (dsDNA) DNA 1: TGTTGAGGAGGTGGTGAT DNA 2: ATCACCACCTCCTCAACA |  |  |  | binding result [6]: no binding; binding result [7]: binds |
| dsDNA 150 bp random (dsDNA) DNA 1: GTACCGGGCCCCCCCTCGAGGTCGACGGTATCGATAAGCTTGATATCGAATTCAATTCCAAAGAAGCCATGCGCCGTGCAGAGCAGGAAAAAGCCACACGGGAACTCCTCCTGCAACAAACTTCAGCACCACATGCATCATCAGTTACATCCGGGATC DNA 2: GATCCCGGATGTAACTGATGATGCATGTGGTGCTGAAGTTTGTTGCAGGAGGAGTTCCCGTGTGGCTTTTTCCTGCTCTGCACGGCGCATGGCTTCTTTGGAATTGAATTCGATATCAAGCTTATCGATACCGTCGACCTCGAGGGGGGGCCCGGTAC |  |  |  | binding result [8]: binds |
